As a reminder, the Ki is a dissociation constant, usually derived from enzyme kinetics or from competition with a known ligand. A higher Ki goes with lower affinity. The term Kd denotes the equilibrium constant for the complex coming apart.

This test has as its target GST-ELOB/ELOC complex (UniProt Q15370). The test can be described thus: fluorescence polarisation. A general note: Polarisation of emitted light reports the rotation of a fluorescent probe.

In turn, EPOPwt (peptide) had an inhibition constant Ki of 2.35 nM. This lies in the single-digit nanomolar range. Consider EPOPwt-FAM (peptide), for which the equilibrium dissociation constant (Kd) was determined as 0.45 nM.

The values are drawn from article doi:10.1101/2022.11.04.515028.
